Measurements published in publication PMC6538607.

Experiments:
[1] = molecular target: p43, the major excreted/secreted protein of Trichuris muris (native p43) (Trichuris muris); test: MST; serial dilution of IL-13 from 2500 nM to 40 pM with 5 nM NHS-647-labeled p43; 20 mM HEPES, 150 mM NaCl, 0.005% Tween-20, pH 7.4; KD model (1:1 stoichiometry); three reactions
[2] = molecular target: p43, the major excreted/secreted protein of Trichuris muris (native p43) (Trichuris muris); test: native MS; p43 and IL-13 mixed at a ratio of 1.5:1 in 250 mM ammonium acetate, pH 7, 2 h at room temperature; nano-electrospray, collision-induced dissociation of the mass-selected 18+ ion of the complex

B1: recombinant murine interleukin-13 (ligand)
chain: APGPVPRSVSLPLTLKELIEELSNITQDQTPLCNGSMVWSVDLAAGGFCVALDSLTNISNCNAIYRTQRILHGLCNRKAPTTVSSLPDTKIEVAHFITKLLSYTKQLFRHGPF
Kd [1]: 420 nM
stoichiometry N [2]: 1
